For experiment [1], the target named is T1, transferrin (UniProt P02787 20-698).
T1 construct: transferrin (serotransferrin), the iron transporter of serum; probably the mature plasma protein; also called Tf; WT-Tf
The experiment is described as follows: SPR; BIAcore 2000; transferrin coupled at a CM5 sensor chip, CD14 flowed over; details in the Supplementary Materials (not shown). Conditions: both partners purified. (In general: SPR reads the build-up and loss of mass on a sensor chip optically.)

Experiment [2] has as its target T1, transferrin. The experiment is described as follows: not stated; direct binding of TC6 (Fig. S9C to E); method not given.

T1 sequence (P02787 20-698): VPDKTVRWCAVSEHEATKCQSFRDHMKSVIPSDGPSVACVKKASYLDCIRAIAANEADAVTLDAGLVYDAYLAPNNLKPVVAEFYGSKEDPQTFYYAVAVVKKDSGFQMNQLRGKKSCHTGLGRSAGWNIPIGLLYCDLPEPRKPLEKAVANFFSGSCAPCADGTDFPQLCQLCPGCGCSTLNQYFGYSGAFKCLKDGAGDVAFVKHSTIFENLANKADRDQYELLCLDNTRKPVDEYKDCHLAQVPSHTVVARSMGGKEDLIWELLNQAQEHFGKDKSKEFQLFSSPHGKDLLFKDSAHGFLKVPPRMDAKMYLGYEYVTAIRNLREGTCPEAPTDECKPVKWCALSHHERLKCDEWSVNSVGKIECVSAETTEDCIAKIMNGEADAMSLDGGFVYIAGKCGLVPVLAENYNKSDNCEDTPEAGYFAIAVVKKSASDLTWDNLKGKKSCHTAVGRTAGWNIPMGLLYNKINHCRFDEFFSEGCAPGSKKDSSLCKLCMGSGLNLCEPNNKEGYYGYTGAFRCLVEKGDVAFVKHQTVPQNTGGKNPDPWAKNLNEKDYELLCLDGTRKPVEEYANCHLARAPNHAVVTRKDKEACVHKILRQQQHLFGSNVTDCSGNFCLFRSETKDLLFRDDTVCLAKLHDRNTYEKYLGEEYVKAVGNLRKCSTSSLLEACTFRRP

B1: cluster of differentiation 14 (CD14) (receptor, UniProt P08571 20-345, looked up)
chain: TTPEPCELDDEDFRCVCNFSEPQPDWSEAFQCVSAVEVEIHAGGLNLEPFLKRVDADADPRQYADTVKALRVRRLTVGAAQVPAQLLVGALRVLAYSRLKELTLEDLKITGTMPPLPLEATGLALSSLRLRNVSWATGRSWLAELQQWLKPGLKVLSIAQAHSPAFSCEQVRAFPALTSLDLSDNPGLGERGLMAALCPHKFPAIQNLALRNTGMETPTGVCAALAAAGVQPHSLDLSHNSLRATVNPSAPRCMWSSALNSLNLSFAGLEQVPKGLPAKLRVLDLSCNRLNRAPQPDELPEVDNLTLDGNPFLVPGTALPHEGSMN
notes: CD14, TLR coreceptor; isolated protein used in SPR and native gel; Probably a soluble recombinant CD14; also called WT-CD14; wild-type CD14
Regarding B1, in experiment [1], the Kd (in general, the equilibrium constant for the complex coming apart) came out at 14 nM; the koff (usually the first-order rate constant of dissociation) worked out at 0.00033 s⁻¹; the kon (usually a measure of how fast the partners come together) amounted to 24000 M⁻¹ s⁻¹.

B2: peptide TC6 (peptide)
peptide: TTPEPC
notes: designed peptide TC6; also called interference peptide TC6
In experiment [2], B2 registered a Kd of 13 nM.
